Data as given in patent US20080280832A1 (LABORATOIRES SERONO, published 2008).

Target: T1, human FSH receptor (human, UniProt P23945 18-695)
T1 sequence (looked up): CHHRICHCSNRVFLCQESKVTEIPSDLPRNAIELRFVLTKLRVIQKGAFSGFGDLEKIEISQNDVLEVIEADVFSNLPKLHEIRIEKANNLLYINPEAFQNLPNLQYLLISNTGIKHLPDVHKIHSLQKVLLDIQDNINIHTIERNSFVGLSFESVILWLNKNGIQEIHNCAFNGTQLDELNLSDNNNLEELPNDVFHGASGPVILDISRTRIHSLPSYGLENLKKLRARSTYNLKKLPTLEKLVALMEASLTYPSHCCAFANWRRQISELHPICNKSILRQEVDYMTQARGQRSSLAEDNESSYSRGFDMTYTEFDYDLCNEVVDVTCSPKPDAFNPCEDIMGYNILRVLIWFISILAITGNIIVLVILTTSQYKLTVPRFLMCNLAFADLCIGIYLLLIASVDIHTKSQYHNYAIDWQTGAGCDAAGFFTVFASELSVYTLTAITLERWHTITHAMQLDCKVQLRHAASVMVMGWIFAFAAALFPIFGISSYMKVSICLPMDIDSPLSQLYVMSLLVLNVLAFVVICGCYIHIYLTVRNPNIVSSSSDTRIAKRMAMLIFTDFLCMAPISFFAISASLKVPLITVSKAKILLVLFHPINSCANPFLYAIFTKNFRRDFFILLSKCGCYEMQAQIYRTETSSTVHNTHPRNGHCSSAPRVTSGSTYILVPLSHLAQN
Assay: cell-based or functional assay

EC50 M (cAMP production in CHO-FSHR cells): 0.414 nM
B1: Clone 15C- α D3N/β GM1 (ligand)
chain 1: not shown
chain 2: NSCELTNITIAIEKEECRFCISINTTWCAGYCYTRDLVYKDPARPKIQKTCTFKNLTYETVRVPGCAHHADSLYTYPVATQCHCGKCDSDSTDCTVRGLGPSYCSFGEMKE
